Measurements reported in paper PMC4943861 (ACS chemical biology, 2015).

Assays:
Abl3D = Abl3D (UniProt P00519 38-512); assay: cell-based or functional assay
Fyn = Fyn (human (endogenous in K562), UniProt P06241 1-537); assay: cell-based or functional assay
Sequence of Fyn (P06241 whole entry): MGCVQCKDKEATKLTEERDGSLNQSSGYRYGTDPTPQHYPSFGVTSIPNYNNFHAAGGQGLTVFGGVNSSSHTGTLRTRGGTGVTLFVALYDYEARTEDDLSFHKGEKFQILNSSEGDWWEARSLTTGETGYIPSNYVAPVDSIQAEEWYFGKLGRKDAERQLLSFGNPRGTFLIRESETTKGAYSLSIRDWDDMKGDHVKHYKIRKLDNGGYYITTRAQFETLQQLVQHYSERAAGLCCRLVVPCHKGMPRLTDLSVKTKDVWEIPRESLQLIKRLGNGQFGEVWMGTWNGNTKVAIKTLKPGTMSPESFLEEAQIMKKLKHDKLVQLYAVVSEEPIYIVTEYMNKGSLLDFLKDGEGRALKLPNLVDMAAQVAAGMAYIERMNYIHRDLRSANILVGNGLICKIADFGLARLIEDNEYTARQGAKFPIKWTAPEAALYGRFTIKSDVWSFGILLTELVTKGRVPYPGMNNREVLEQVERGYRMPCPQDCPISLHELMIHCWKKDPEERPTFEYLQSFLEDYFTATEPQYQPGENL

Sequence of Abl3D (P00519 38-512): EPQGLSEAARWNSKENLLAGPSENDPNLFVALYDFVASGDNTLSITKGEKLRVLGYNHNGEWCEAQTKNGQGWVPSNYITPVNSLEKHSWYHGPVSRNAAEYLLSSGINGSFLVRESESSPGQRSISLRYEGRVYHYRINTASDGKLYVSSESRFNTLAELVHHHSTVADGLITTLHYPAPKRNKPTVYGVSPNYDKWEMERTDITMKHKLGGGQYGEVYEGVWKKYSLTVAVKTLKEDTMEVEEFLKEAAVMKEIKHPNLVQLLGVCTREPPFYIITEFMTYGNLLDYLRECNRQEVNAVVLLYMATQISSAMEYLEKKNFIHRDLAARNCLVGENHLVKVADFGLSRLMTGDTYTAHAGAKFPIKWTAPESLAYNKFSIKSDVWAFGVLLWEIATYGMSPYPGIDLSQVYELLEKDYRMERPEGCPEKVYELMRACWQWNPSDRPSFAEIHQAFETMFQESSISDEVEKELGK

B1: SNAP(HA4)-4 (designed binder)
chain: DKDCEMKRTTLDSPLGKLELSGCEQGLHEIIFLGKGTSAADAVEVPAPAAVLGGPEPLMQATAWLNAYFHQPEAIEEFPVPALHHPVFQQESFTRQVLWKLLKVVKFGEVISYSHLAALAGNPAATAAVKTALSGNPVPILIPCHRVVQGDLDVGGYEGGLAVKEWLLAHEGHRLGKVSSVPTKLEVVAATPTSLLISWDAPMSSSSVYYYRITYGETGGNSPVQEFTVPYSSSTATISGLSPGVDYTITVYAWGEDSAGYMFMYSPISINYRT
modifications: compound 4 (O6-benzylguanine derivative of the pan-kinase inhibitor 2) covalently conjugated to SNAPtag
Abl3D
  IC50, in vitro kinase activity assay of Abl3D: 8.3 nM
Fyn
  IC50 of kinase activity of purified FYN, relative to monovalent 4: 8 fold more potent than 4
